Assay results from patent US20210047402A1 (published 2021).

Target: human CD22 (human, UniProt P20273 20-687)
Test: BLI
In short: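 Affinity for human CD22 protein was measured by biolayer interferometry on an Octet QK-384 with anti-human IgG Fc capture biosensors, in 1×PBS, 0.1% BSA, 0.02% Tween-20, pH 7.2. Heavy chain-only antibodies were loaded at 5 μg/mL for 120 seconds, then dipped into a 7-point 1:2 dilution series of CD22 starting at 250 nM, with a buffer-only reference well. Kd was derived as koff/kon from a 1:1 binding model fit in Octet Data Analysis v9.0.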

human CD22, sequence (P20273 20-687): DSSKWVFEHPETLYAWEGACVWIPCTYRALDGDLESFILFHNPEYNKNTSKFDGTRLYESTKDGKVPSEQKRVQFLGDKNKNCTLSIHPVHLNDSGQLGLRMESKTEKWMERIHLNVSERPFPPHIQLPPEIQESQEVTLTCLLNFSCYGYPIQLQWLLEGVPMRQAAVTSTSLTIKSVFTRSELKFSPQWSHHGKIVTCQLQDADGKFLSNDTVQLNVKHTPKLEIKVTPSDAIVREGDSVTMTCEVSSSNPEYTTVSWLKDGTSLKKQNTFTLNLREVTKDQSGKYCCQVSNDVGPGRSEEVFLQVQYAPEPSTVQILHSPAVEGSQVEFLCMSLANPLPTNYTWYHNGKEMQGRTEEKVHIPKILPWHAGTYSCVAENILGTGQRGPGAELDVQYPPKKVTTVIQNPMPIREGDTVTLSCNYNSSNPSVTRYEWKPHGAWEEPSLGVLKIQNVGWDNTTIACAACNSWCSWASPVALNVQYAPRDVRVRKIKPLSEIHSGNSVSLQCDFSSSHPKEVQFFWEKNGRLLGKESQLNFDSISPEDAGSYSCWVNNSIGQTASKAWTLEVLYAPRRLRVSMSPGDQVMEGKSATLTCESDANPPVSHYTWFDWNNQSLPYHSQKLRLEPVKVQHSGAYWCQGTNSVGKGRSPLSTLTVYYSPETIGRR

Kd	Binder
48.2 nM	anti-CD22 heavy chain-only antibody Clone ID 335220 (antibody, V domains shown) VH: QLQLQESGPGLVKPSETLSLTCTVSGGSISSSSYYWGWIRQPPGKGLEWIGSIYYSGSTYYNPSLKNRVTISVDTSKNQFSLKLSSVTAADTAVYYCTREDSSNWRSRGQGTLVTVSS
36 nM	anti-CD22 heavy chain-only antibody Clone ID 335189 (antibody, V domains shown) VH: QLQLQESGPGLVKPSETLSLTCTVSGGSISSSSYYWGWIRQPPGKGLEWIGSVYYTGATYYNPSLKNRVTISVDTSKNQFSLKLSSVTAADTAVYYCTRDDSSNWRSRGQGTLVTVSS
27.3 nM	anti-CD22 heavy chain-only antibody Clone ID 335236 (antibody, V domains shown) VH: QLQLQESGPGLVKPSETLSLTCTVSGGSISSSSYYWGWIRQPPGKGLEWIGSIYYSGSTYYNPSLKSRVTISVDTSKNQFSLKLSSVTAADTAVYYCTREDSSNWRSRGQGTLVTVSS
33 nM	anti-CD22 heavy chain-only antibody Clone ID 335166 (antibody, V domains shown) VH: QLQLQESGPGLVKPSETLSLTCTVSGGSISSSSYYWGWIRQPPGKGLEWIGSIYYSGSTYYNPSLKNRVTISVDTSRNQFSLNLSSVTAADTAVYYCTRDDSSNWRSRGQGTLVTVSS
90.6 nM	anti-CD22 heavy chain-only antibody Clone ID 335219 (antibody, V domains shown) VH: QLQLQESGPGLVKPSETLSLTCTVSGGSISSSSYYWGWIRQPPGKGLEWIGSIYYSGVTYYNPSLKNRVTISVDTSKNQFSLKLSSVTAADTAVYYCTREDSSNWRSRGQGTLVTVSS
28.8 nM	anti-CD22 heavy chain-only antibody Clone ID 335297 (antibody, V domains shown) VH: QLQLQESGPGLVKPSETLSLTCTVSGGSISSSSYYWGWIRQPPGKGLEWIGHIYYSGATYYNPSLKNRVTISVDTSRNQFSLNLSSVTAADTAVYYCTREDSSSWRSRGQGTLVTVSS
58.4 nM	anti-CD22 heavy chain-only antibody Clone ID 335208 (antibody, V domains shown) VH: QLQLQESGPGLVKPSETLSLTCTVSGGSISSSSYYWGWIRQPPGKGLEWIGSIYYSGATYYNPSLKNRVTISVDTSRNQFSLNLSSVTAADTAVYYCTREDSSNWRSRGQGTLVTVSS
62.5 nM	anti-CD22 heavy chain-only antibody Clone ID 335210 (antibody, V domains shown) VH: QLQLQESGPGLVKPSETLSLTCTVSGGSISSGDYYWGWIRQPPGKGLEWIGHIYYSGATYYNPSLKNRVTISVDTSRNQFSLKLSSVTAADTAVYYCTREDSSNWRSRGQGTLVTVSS
23.4 nM	anti-CD22 heavy chain-only antibody Clone ID 335224 (antibody, V domains shown) VH: QLQLQESGPGLVKPSETLSLTCTVSGDSISSGDYYWGWIRQPPGKGLEWIGSIYYTGSTYYNPSLKSRVTISVDTSKNQFSLKLSSVTAADTAVYYCTREDSSNWRSRGQGTLVTVSS
36.9 nM	anti-CD22 heavy chain-only antibody Clone ID 335283 (antibody, V domains shown) VH: QLQLQESGPGLVKPSETLSLTCTVSGGSISSSSYYWGWIRQPPGKGLEWIGSIYYSGATYYNPSLKNRVTISVDTSKNQFSLKLSSVTAADTAVYYCTREDSSSWRSRGQGTLVTVSS
19 nM	anti-CD22 heavy chain-only antibody Clone ID 335233 (antibody, V domains shown) VH: QLQLQESGPGLVKPSETLSLTCTVSGDSISSGDYYWGWIRQPPGKGLEWIGSIYYSGSTYYNPSLKSRVTISVDTSKNQFSLKLSSVTAADTAVYYCTREDSSNWRSRGQGTLVTVSS
30.5 nM	anti-CD22 heavy chain-only antibody Clone ID 335173 (antibody, V domains shown) VH: QLQLQESGPGLVKPSETLSLTCTVSGGSITSSSYYWGWIRQPPGKGLEWIGSIYYSGSTYYNPSLKSRVTISVDTSKNQFSLKLSSVTAADTAVYYCTRDDSSNWRSRGQGTLVTVSS
22.4 nM	anti-CD22 heavy chain-only antibody Clone ID 335333 (antibody, V domains shown) VH: QLQLQESGPGLVKPSETLSLTCTVSGGSISSSSYYWGWIRQPPGKGLEWIGSIYYSGSTYYNPSLKSRVTISVDTSKNQFSLKLSSVTAADTAVYYCAREDSSSWRSRGQGTLVTVSS
17.6 nM	anti-CD22 heavy chain-only antibody Clone ID 335186 (antibody, V domains shown) VH: QLQLQESGPGLVKPSETLSLTCTVSGGSISSSSYYWGWIRQPPGKGLEWIGSIYYSGSTYYNPSLKSRVTISVDTSKNQFSLKLSSVTAADTAVYYCTRDDSSNWRSRGQGTLVTVSS
53 nM	anti-CD22 heavy chain-only antibody Clone ID 335188 (antibody, V domains shown) VH: QLQLQESGPGLVKPSETLSLTCTVSGGSISSSSYYWGWIRQPPGKGLEWIGHIYYSGVTYYNPSLKNRVTISVDTSKNQFSLKLSSVTAADTAVYYCTRDDSSNWRSRGQGTLVTVSS
42.2 nM	anti-CD22 heavy chain-only antibody Clone ID 335273 (antibody, V domains shown) VH: QLQLQESGPGLVKPSETLSLTCTVSGGSISSSSYYWGWIRQPPGKGLEWIGSIYYSGSTYYNPSLKSRVTISVDTSKNQFSLKLSSVTAADTAVYYCTREDSSSWRSRGQGTLVTVSS
25.5 nM	anti-CD22 heavy chain-only antibody Clone ID 335226 (antibody, V domains shown) VH: QLQLQESGPGLVKPSETLSLTCTVSGDSISSSSYYWGWIRQPPGKGLEWIGSIYYSGSTYYNPSLKSRVTISVDTSKNQFSLKLSSVTAADTAVYYCTREDSSNWRSRGQGTLVTVSS
38.5 nM	anti-CD22 heavy chain-only antibody Clone ID 335266 (antibody, V domains shown) VH: QLQLQESGPGLVRPSETLSLTCTVSGGSISSSSYYWGWIRQPPGKGLEWIGSIYYSGSTYYNPSLKSRVTISVDTSKNQFSLKLSSVTAADTAVYYCTREDSSSWRSRGQGTLVTVSS
148 nM	anti-CD22 heavy chain-only antibody Clone ID 335179 (antibody, V domains shown) VH: QLQLQESGPGLVKPSETLSLTCTVSGGSISSSSYYWGWFRHPPGKGLDWIGSIHYSGSTYYNPSLKSRVTISVDTSRNQFSLNLSSVTAADTAVYYCTRDDSSNWRSRGQGTLVTVSS
150 nM	anti-CD22 heavy chain-only antibody Clone ID 335195 (antibody, V domains shown) VH: QLQLQESGPGLVKPSETLSLTCTVSGGSISSSSYYWGWIRQPPGKGLEWIGSIYYSGATYYNPSLKNRVTISVDTSRNQFSLNLSSVTAADTAMYYCTREDSSNWRSRGQGTLVTVSS
31.6 nM	anti-CD22 heavy chain-only antibody Clone ID 335295 (antibody, V domains shown) VH: QLQLQESGPGLVKPSETLSLTCTVSGGSISSSSYYWGWIRQPPGKGLEWIGSIYYSGATYYNPSLKNRVTISVDTSRNQFSLNLSSVTAADTAVYYCTREDSSSWRSRGQGTLVTVSS
79.7 nM	anti-CD22 heavy chain-only antibody Clone ID 335242 (antibody, V domains shown) VH: QLQLQESGPGLVKPSETLSLTCTVSGGSISSSSYYWGWIRQPPGKGLEWIGHIYYSGATYYNPSLKNRVTISVDTSRNQFSLNLSSVTAADTAVYYCTREDSSNWRSRGQGTLVTVSS
75.2 nM	anti-CD22 heavy chain-only antibody Clone ID 335230 (antibody, V domains shown) VH: QLQLQESDPGLVKPSETLSLTCTVSGGSISSSSHYWGWIRQPPGKGLEWIGHIYYSGATYYNPSLKNRVTISVDTSRNQFSLNLSSVTAADTAVYYCTREDSSNWRSRGQGTLVTVSS
114 nM	anti-CD22 heavy chain-only antibody Clone ID 335285 (antibody, V domains shown) VH: QLQLQESGPGLVKPSETLSLTCTVSGGSISSSSYYWGWIRQPPGKGLEWIGSIYYSGVTYYNPSLKNRVTISVDTSKNQFSLKLSSVTAADTAVYYCTREDSSSWRSRGQGTLVTVSS
2.66 nM	anti-CD22 heavy chain-only antibody Clone ID 335311 (antibody, V domains shown) VH: QLQLQESGPGLVKPSETLSLTCAVYGGSFSGYYWGWIRQPPGKGLEWIGHIYYSGATYYNPSLKNRVTISVDTSRNQFSLNLSSVTAADTAVYYCTREDSSSWRSRGQGTLVTVSS
